Data as given in PMC3673938, “Two Distinct Calmodulin Binding Sites in the Third Intracellular Loop and Carboxyl Tail of Angiotensin II (AT1A) Receptor” (PLoS ONE, 2013).

What was measured:
GST-ATi3N(213–234)W219A = GST-ATi3N(213–234)W219A (UniProt P25095); assay: pull-down; 50 pmol GST-fusion protein with purified bovine brain CaM (50 pmol) in 250 µl of 100 mM Tris-HCl pH 7.5 with 0.1 mM CaCl2; 4°C; glutathione-sepharose 4B beads; immunoblot with anti-CaM; for the mutants density of CaM against loaded GST-fusion protein
GST-ATi3N(213–234)W219A, sequence (P25095 213-234 W219A): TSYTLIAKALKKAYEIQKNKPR

GST-ATctN(297–324)F313A = GST-ATctN(297–324)F313A (UniProt P25095); assay: as above
GST-ATctN(297–324)F313A, sequence (P25095 297-324 F313A): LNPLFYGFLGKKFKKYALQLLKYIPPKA

GST-ATctN(297–324)F309A = GST-ATctN(297–324)F309A (UniProt P25095); assay: as above
GST-ATctN(297–324)F309A, sequence (P25095 297-324 F309A): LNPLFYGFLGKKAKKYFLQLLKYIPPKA

GST-ATct(297–359) = assay: pull-down; competition: 2 pmol GST-fusion protein incubated with bovine brain CaM (2 or 10 pmol) for 30 minutes in 20 mM Tris-HCl, 70 mM NaCl, 0.1 mM CaCl2, pH 7.5, then 2 pmol Gβγ for 1 hour; glutathione-sepharose 4B beads; immunoblot with anti-Gβ
GST-ATi3(213–242) = assay: as above
GST-ATi3(213–242), sequence (P29754 213-242): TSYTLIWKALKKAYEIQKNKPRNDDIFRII

AT1A receptor-eYFP = AT1A receptor-eYFP (UniProt P25095); assay: FRET or BRET; BRET in living HEK293 cells stably expressing AT1A receptor-eYFP and transiently RLuc-CaM, CaM-RLuc or RLuc; 5 µM coelenterazine; ratio 525 nm/460 nm; with or without W7 (20 min) and/or 100 nM Ang II
AT1A receptor-eYFP, sequence (P25095 whole entry): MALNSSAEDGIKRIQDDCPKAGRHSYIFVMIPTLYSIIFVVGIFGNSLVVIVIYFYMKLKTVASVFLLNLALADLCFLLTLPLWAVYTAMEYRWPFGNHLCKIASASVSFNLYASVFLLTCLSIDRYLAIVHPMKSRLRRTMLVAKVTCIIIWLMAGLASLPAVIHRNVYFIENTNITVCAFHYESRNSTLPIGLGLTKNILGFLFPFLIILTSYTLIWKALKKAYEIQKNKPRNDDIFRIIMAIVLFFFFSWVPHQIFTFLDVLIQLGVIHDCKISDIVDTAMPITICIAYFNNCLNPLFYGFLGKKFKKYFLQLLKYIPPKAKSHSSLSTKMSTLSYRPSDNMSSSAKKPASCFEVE

Substance | relative binding efficiency, % of wild type (% of wild type) (GST-ATi3N(213–234)W219A) | relative binding efficiency, % of wild type (% of wild type) (GST-ATctN(297–324)F313A) | relative binding efficiency, % of wild type (% of wild type) (GST-ATctN(297–324)F309A) | Gβγ bound to GST-ct with 2 pmol CaM, % of no CaM (GST-ATct(297–359)) | Gβγ bound to GST-ct with 10 pmol CaM, % of no CaM (GST-ATct(297–359)) | Gβγ bound to GST-i3 loop with 2 pmol CaM, % of no CaM (GST-ATi3(213–242)) | Gβγ bound to GST-i3 loop with 10 pmol CaM, % of no CaM (GST-ATi3(213–242)) | BRET ratio with the CaM inhibitor W7, % of untreated (% of non-W7-treated) (AT1A receptor-eYFP)
calmodulin purified from bovine brain (from UniProt P62157 1-149) (natural protein) | 32 | 22 | 29 | 73% | 34% | 77% | 60% | –
CaM-RLuc (from UniProt P0DP23 1-149) (natural protein) | – | – | – | – | – | – | – | 40
